Legend:
white blood cell DNA = assay: Pt-DNA adduct quantitation in white blood cell DNA; assay type: in vivo, rat; conditions: cisplatin i.v. 10 mg/kg; HA-Lys-Pt s.c. 10 mg/kg cisplatin basis; 10 mg/kg
Experimental: Whole blood was centrifuged (1500×g, 5 min., 4° C., no brake). Top layer (plasma) and middle layer (white blood cells) were transferred to new tubes. Plasma was frozen (−20° C.) until analysis. […] The white blood cell pellet was washed twice with cold PBS and re-suspended in 9 mL of white blood cell buffer (10-mM Tris, pH 7.4, 2.3% NaCl, 2-mM EDTA), and 900 μL of 1.1-M NH4HCO3, 900 μL of 10% SDS, and 75 μL of 2% Proteinase K were added and incubated at 42° C. overnight. Then, 3.3 mL of 5-M NaCl was added, samples shaken vigorously, and centrifuged twice (3200×g, 5 min, 4° C.), each time discarding the pellet. DNA was pelleted with 20 mL of ice-cold 100% ethanol and centrifuged (3200×g, 5 min, 4° C.); the DNA pellet was washed twice with 75% ethanol, re-suspended in water, and quantitated. DNA was digested in 1% HNO3 (800 μL total volume) overnight at 70° C. DNA samples were diluted 1:10 in 1% HNO3 and plasma samples were diluted 1:10,000 in 1% HNO3. Diluted samples were analyzed for Pt content using ICP-MS with a calibration curve from 1-1000 ppt.

[1] = test system: MDA-1986 (human head and neck squamous cell carcinoma) cells; assay: Anti-proliferative activity (Resazurin Blue, 72 hours); assay type: cell-based; conditions: listed as HA-Lys-Pt 75 kDa
Experimental: MDA-1986 (human head and neck squamous cell carcinoma), 4T1.2-neu (murine breast cancer cells), and A2058 (human melanoma) cells were maintained in Dulbecco's Modified Eagle Medium (DMEM, Corning, Manassas, Va.) with 4.5 g/L glucose, 4.5 g/L L-glutamine, and 10% fetal bovine serum in a humidified incubator at 37° C. and 5% CO2. Cells were seeded into 96-well plates (3,000 cells/well in 90 μL media) and allowed to attach overnight. […] Resazurin Blue (Acros Organics, Geel, Belgium) in PBS was added to each well (5-μM final concentration; 10-μL addition) and incubated at 37° C. for 4 hours. Fluorescence (λex 550 nm, λem 605 nm) was quantified with a SpectraMax Gemini XS plate-reader (Molecular Devices, Sunnyvale, Calif.). The relative growth of cells incubated with each compound concentration was normalized to vehicle-treated controls (100% proliferation). Data from at least three separate experiments performed in duplicate was analyzed using non-linear regression (GraphPad Prism 5.0) to generate IC50 values.

[2] = Urinalysis of a healthy dog given 1.5 mg/kg on day 1 and 2.0 mg/kg on day 70, sub-mucosa; assay type: in vivo
Experimental: Before each dose, the dog was examined by clinical chemistry, hematology, and urinalysis. Additional examinations of clinical chemistry and hematology were performed on days 7, 14, and 42 after the first dose. Additional tests of urinalysis were performed on days 7 and 14 after the first dose. The potential drug-induced toxicities were monitored for 56 days after the second dose. Specifically, clinical chemistry and urinalysis were performed on days 7, 14, 21, and 56, and hematology was performed on days 7, 14, and 56 after the second dose to evaluate the tolerability and toxicity of the formulation.
Urianlyses were performed at pre- and post-dose for both injections. The injections were given via the sub-mucosa in the mouth.

[3] = Pharmacokinetics in a healthy dog, oral sub-mucosa injection (SAAM II model); assay type: in vivo
Experimental: Pharmacokinetics of HA-Lys-Pt were determined in a healthy dog by Xenometrics LLC (Stillwell, Kans.). […] After each injection, 2-mL serum samples were collected at 0, 0.25, 1, 2, 6, 24, 48, 96, and 168 hours. […] The samples were frozen at −80° C. until ICP-MS analysis. Prior to analysis, serum and urine samples were diluted 250 and 500-fold using 1% HNO3, respectively. The platinum calibration curve contained 4 replicates of 6 concentrations (0, 1, 10, 20, 40, and 50 ppb). The internal standard was bismuth at 50 ppb.
The pharmacokinetics of the HA-Lys-Pt was measured using the serum and urine samples. The data was modeled using SAAM II software with a four compartmental model.
As indicated by the model, q1, q2, q3, and q4 represent the central blood compartment, the body/tissue compartment, the injection site, and the urine compartment, respectively. The syringe represents the dose that was given to the injection site compartment. The two red circles indicate the two sampling sources, the serum from the q1 (s1), and the urine from the q4 (s2). Furthermore, five transfer rate constants and one loss rate constant were applied to the model to link the compartments and their individual differential equations for data analysis and simulation. The assignment of rate constants and pharmacokinetic interpretation has been discussed previously. The calculated PK parameters including AUC, clearance, volume of distribution at steady state (Vss), elimination half-lives (te), and transfer rate constants, are listed in Table 3.

With “HA-cis-[Pt(NH3)2(N^α-Acetyl-L-Lysine)] [75HA-Lys-Pt]” the “Pt-DNA adduct AUC” value (white blood cell DNA) was 4730 pg Pt×h/μg DNA, the IC50 ([1]; mean ± S.E.M., cisplatin basis) was 39.8 ± 4.4 µM and the IC50 ([1]; text b180) was roughly 21 µM. The Urobilinogen ([2]; 2 mg/kg, 7 days after) was 0.2 E.U./dL, the “urine Bilirubin” value ([2]; 2 mg/kg, 7 days after) was “Moderate” and the “urine Blood” value ([2]; 2 mg/kg, 7 days after) was “Negative”. For the same substance, the “urine Clarity” value ([2]; 2 mg/kg, 7 days after) was “Clear”, the “urine Color” value ([2]; 2 mg/kg, 7 days after) was “Dark Yellow” and the “urine Glucose” value ([2]; 2 mg/kg, 7 days after) was “Negative”. The “urine Ketones” value ([2]; 2 mg/kg, 7 days after) was “Negative”, the “urine Leukocytes” value ([2]; 2 mg/kg, 7 days after) was “Negative” and the “urine Nitrite” value ([2]; 2 mg/kg, 7 days after) was “Negative”. For the same substance, the “urine Protein” value ([2]; 2 mg/kg, 7 days after) was 30 mg/dL, the “urine Specific Gravity” value ([2]; 2 mg/kg, 7 days after) was 1.053 and the “urine pH” value ([2]; 2 mg/kg, 7 days after) was 7.0. The Urobilinogen ([2]; 2 mg/kg, 14 days after) was 0.2 E.U./dL, the “urine Bilirubin” value ([2]; 2 mg/kg, 14 days after) was “Negative” and the “urine Blood” value ([2]; 2 mg/kg, 14 days after) was “Large”. The “urine Clarity” value ([2]; 2 mg/kg, 14 days after) was “Clear”, the “urine Color” value ([2]; 2 mg/kg, 14 days after) was “Light Yellow” and the “urine Glucose” value ([2]; 2 mg/kg, 14 days after) was 100 mg/dL. The “urine Ketones” value ([2]; 2 mg/kg, 14 days after) was “Negative”, the “urine Leukocytes” value ([2]; 2 mg/kg, 14 days after) was “Negative” and the “urine Nitrite” value ([2]; 2 mg/kg, 14 days after) was “Negative”. The “urine Protein” value ([2]; 2 mg/kg, 14 days after) was no less than 300 mg/dL, the “urine Specific Gravity” value ([2]; 2 mg/kg, 14 days after) was 1.010 and the “urine pH” value ([2]; 2 mg/kg, 14 days after) was 7.5. The Urobilinogen ([2]; 2 mg/kg, 21 days after) was 1.0 E.U./dL, the “urine Bilirubin” value ([2]; 2 mg/kg, 21 days after) was “Moderate” and the “urine Blood” value ([2]; 2 mg/kg, 21 days after) was “Small”. The “urine Clarity” value ([2]; 2 mg/kg, 21 days after) was “Clear”, the “urine Color” value ([2]; 2 mg/kg, 21 days after) was “Dark Orange” and the “urine Glucose” value ([2]; 2 mg/kg, 21 days after) was “Negative”. The “urine Ketones” value ([2]; 2 mg/kg, 21 days after) was “Trace”, the “urine Leukocytes” value ([2]; 2 mg/kg, 21 days after) was “Negative” and the “urine Nitrite” value ([2]; 2 mg/kg, 21 days after) was “Negative”. For the same substance, the “urine Protein” value ([2]; 2 mg/kg, 21 days after) was 30 mg/dL, the “urine Specific Gravity” value ([2]; 2 mg/kg, 21 days after) was 1.044 and the “urine pH” value ([2]; 2 mg/kg, 21 days after) was 7.0. The Urobilinogen ([2]; 2 mg/kg, 56 days after) was 1.0 E.U./dL, the “urine Bilirubin” value ([2]; 2 mg/kg, 56 days after) was “Moderate” and the “urine Blood” value ([2]; 2 mg/kg, 56 days after) was “Large”. For the same substance, the “urine Clarity” value ([2]; 2 mg/kg, 56 days after) was “Clear”, the “urine Color” value ([2]; 2 mg/kg, 56 days after) was “Dark Orange” and the “urine Glucose” value ([2]; 2 mg/kg, 56 days after) was “Negative”. For the same substance, the “urine Ketones” value ([2]; 2 mg/kg, 56 days after) was “Negative”, the “urine Leukocytes” value ([2]; 2 mg/kg, 56 days after) was “Negative” and the “urine Nitrite” value ([2]; 2 mg/kg, 56 days after) was “Negative”. For the same substance, the “urine Protein” value ([2]; 2 mg/kg, 56 days after) was 30 mg/dL, the “urine Specific Gravity” value ([2]; 2 mg/kg, 56 days after) was 1.030 and the “urine pH” value ([2]; 2 mg/kg, 56 days after) was 8.0. The Urobilinogen ([2]; […], 7 days after) was 0.2 E.U./dL, the “urine Bilirubin” value ([2]; […], 7 days after) was “Negative” and the “urine Blood” value ([2]; […], 7 days after) was “Negative”. For the same substance, the “urine Clarity” value ([2]; […], 7 days after) was “Cloudy”, the “urine Color” value ([2]; […], 7 days after) was “Yellow” and the “urine Glucose” value ([2]; […], 7 days after) was “Negative”. For the same substance, the “urine Ketones” value ([2]; […], 7 days after) was “Negative”, the “urine Leukocytes” value ([2]; […], 7 days after) was “Negative” and the “urine Nitrite” value ([2]; […], 7 days after) was “Negative”. The “urine Protein” value ([2]; […], 7 days after) was “Negative”, the “urine Specific Gravity” value ([2]; […], 7 days after) was 1.023 and the “urine pH” value ([2]; […], 7 days after) was 8.0. The Urobilinogen ([2]; […], 14 days) was 0.2 E.U./dL, the “urine Blood” value ([2]; […], 14 days) was “Large” and the “urine Clarity” value ([2]; […], 14 days) was “Cloudy”. The “urine Color” value ([2]; […], 14 days) was “Yellow”, the “urine Glucose” value ([2]; […], 14 days) was “Negative” and the “urine Ketones” value ([2]; […], 14 days) was “Negative”. For the same substance, the “urine Leukocytes” value ([2]; […], 14 days) was “Negative”, the “urine Nitrite” value ([2]; […], 14 days) was “Negative” and the “urine Protein” value ([2]; […], 14 days) was 30 mg/dL. The “urine Specific Gravity” value ([2]; […], 14 days) was 1.038, the “urine pH” value ([2]; […], 14 days) was 6.5 and the long-term renal damage ([2]; healthy dog) was “did not appear to cause long-term renal damage”. It also gave a Clearance ([3]; 1st dose […]) of 0.017 L/h/kg, a Tmax ([3]; 1st dose […]) of 6 h and a Vss ([3]; 1st dose […]) of 7.4 L/kg. It also gave an AUC ([3]; 2nd dose 2.0 mg/kg) of 218 µg·h/mL, a Clearance ([3]; 2nd dose 2.0 mg/kg) of 0.0092 L/h/kg and a Cmax ([3]; 2nd dose 2.0 mg/kg) of 3.437 µg/mL. For the same substance, the Tmax ([3]; 2nd dose 2.0 mg/kg) was 14.4 h and the Vss ([3]; 2nd dose 2.0 mg/kg) was 2.5 L/kg.

Source: patent US20190015518A1, “DRUG DELIVERY COMPOSITIONS AND METHODS” (priority 2016, published 2019)
